From patent US20060019335A1, “Compositions and methods to promote c-IAP autodegradation” (priority 2004, published 2006)

Tests used:
Livin α = target: T1, Livin α (Homo sapiens, UniProt Q96CA5); test: Co-transfection of HeLa cells with Livin α and Smac plasmids, Western blot; format: cell-based; settings: for auto-ubiquitylation of Livin: FIG. 3B
T1 construct: expressed in transfected cells; host or cells: HeLa
T1 sequence (Q96CA5 1-298): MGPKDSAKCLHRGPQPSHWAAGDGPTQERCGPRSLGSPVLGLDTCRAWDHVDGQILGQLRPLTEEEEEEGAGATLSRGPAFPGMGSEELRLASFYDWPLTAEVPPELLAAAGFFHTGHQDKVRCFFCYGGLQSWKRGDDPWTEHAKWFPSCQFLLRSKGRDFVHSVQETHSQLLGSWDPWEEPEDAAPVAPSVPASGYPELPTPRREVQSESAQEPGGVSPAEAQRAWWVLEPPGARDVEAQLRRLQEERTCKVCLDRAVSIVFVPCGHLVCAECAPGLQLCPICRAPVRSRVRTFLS
Protocol: Transfection of cultured Cells—HeLa cells were grown in DMEM supplemented with 10% fetal bovine serum. Cells were seeded onto 6-well plates the day before transfection and transfected at 70% confluence by using Lipofectin combined with Plus reagent (Invitrogen) according to the manufacture's protocols. The IAP expression plasmids (3 μg each for c-IAP1, c-IAP2 and XIAP, and 250 ng each for Livin αand Livin β) together with 2.5 μg of Smac expression plasmids or pcDNA3.1(−) blank plasmid were used for single-well transfection in the absence of antibiotics. The cells were harvested 12 hours after the transfection and lysed with 0.5% CHAPS in 20 mM HEPES (pH 7.4), 10 mM KCl, 1 mM MgCl2 and 1 mM DTT. The lysates were centrifuged and the protein concentrations of the supernatants were quantified by the modified Bradford method (36).
Western Blot analysis—Proteins were resolved by SDS-PAGE and transferred to nitrocellulose filters. The filters were blocked with 5% milk and probed with antibodies as indicated. The signals were visualized with the enhanced chemiluminescence method.
In the current study, Livin was also transiently expressed in HeLa cells to determine the ubiquitylation activity (see FIG. 3B). Briefly, Livin α WT or H269A mutant plasmids together with Smac WT or Smac ΔA mutant, or with pcDNA3.1(−) blank plasmid, were co-transfected into HeLa cells. As controls, HeLa cells were also transfected with either Smac WT or ΔA plasmids together with the blank p3×FLAG-CMV-7 plasmid. The transfected cells were cultivated either in the absence (see lanes 1-7 of FIG. 3B) or in the presence (see lane 8-14 of FIG. 3B) of MG132. Equal amounts of soluble proteins (7 μg) from the transfected cells were immunoblotted with either the HRP-conjugated anti-FLAG antibody (see top panel of FIG. 3B) to detect N-terminal 3×FLAG tagged IAPs, or with the anti-c-Myc antibody (see middle panel of FIG. 3B) to detect Smac. The anti-Actin immunoblotting results were to show equal protein loading (see bottom panel of FIG. 3B). […]

c-IAP1 = test: In vitro ubiquitylation assay of purified c-IAP1 and BIR deletion mutants; format: biochemical, human; settings: for c-IAP1 auto-ubiquitylation in vitro: full length c-IAP1, UbCH6 as E2, FIG. 7A
Protocol: In vitro ubiquitylation assays—In vitro ubiquitylation assays were carried out as previously described (29). IAP proteins (200 nM) were incubated with or without Smac polypeptide for 2 hours at 30° C. in a reaction system containing 50 mM Tris-HCl (pH 7.5), 50 mM NaCl, 2 mM Mg-ATP, 20 μM mammalian ubiquitin, 100 nM rabbit ubiquitin-activating enzyme (E1) and 400 nM of recombinant human ubiquitin-conjugating enzymes (E2). The reactions were stopped by adding equal volumes of 2×SDS sample loading buffer followed by Western Blot analysis.
To determine whether Smac promotes auto-ubiquitylation of XIAP, purified XIAP (without tag) was incubated for 2 hours at 30° C. either with or without different concentrations of Smac or with Smac ΔA in the reconstituted ubiquitylation reaction system (Ub Mix) consisting of 50 mM Tris-HCl (pH 7.5), 50 mM NaCl, 2 mM Mg-ATP, 20 μM mammalian ubiquitin, 100 nM rabbit ubiquitin-activating enzyme (E1) and 400 nM UbCH6 (E2). The reactions were stopped by adding equal volumes of 2×SDS sample loading buffer and the products were subjected to SDS-PAGE followed by immunoblotting with anti-XIAP antibody. The purified XIAP was active in directing poly-ubiquitylation. But the auto-ubiquitylation of XIAP was not enhanced by Smac.
Smac ΔA and the peptide Smac-7M were used as negative controls. The reactions were stopped by adding equal volumes of 2×SDS sample loading buffer and the products were subjected to SDS-PAGE followed by immunoblotting with anti-c-IAP1 antibody. The arrows indicate the unmodified full length or deleted c-IAP1.
To verify this, stepwise deletion was performed of the first BIR (ΔBIR1, residues 1-161), the first two BIRs (ΔBIR1-2, residues 1-265), or all the three BIR domains (ΔBIR1-2-3, residues 1-339) from c-IAP1. All these mutants and the full-length wild type c-IAP1 were purified as a non-tagged form by using the pTYB11 Intein system (New England Biolabs).

B1: Smac ΔA: Smac mutant lacking the initial Ala (Ala deletion mutant polypeptide), used as negative control (protein, UniProt Q9NR28 22-239, looked up, variant A1*)
Diablo IAP-binding …: LCVPVVANFKKRCFSELIRPWHKTVTIGFGVTLCVPIAQKSEPHSLSSEALMRRAVSLVTDSTSTFLSQTTYALIEAITEYTKAVYTLTSLYRQYTSLLGKMNSEEEDEVWQVIIGARAEMTSKHQEYLKLETTWMTAVGLSEMAAEAAYQTGADQASITARNHIQLVKLQVEEVHQLSRKAETKLAEAQIEELRQKTQEEGEERAESEQEAYLRED
- auto-ubiquitylation of Livin (Livin α): stimulated the auto-ubiquitylation of XIAP and Livin
- c-IAP1 auto-ubiquitylation in vitro (c-IAP1): failed to promote such auto-ubiquitylation
- c-IAP1 auto-ubiquitylation in vitro (c-IAP1; listed as Smac mutant lacking the initial Ala residue): did not promote the E3 activity
- E3 activity of c-IAP1ΔBIR1 (c-IAP1; peptides and controls, FIG. 7B): failed to activate c-IAP1

B2: Smac: wild type (WT) Smac polypeptide from Homo sapiens, SEQ ID NO 1, 239 amino acids; second mitochondria-derived activator of caspase (protein, listed as Homo sapiens)
chain: MAALKSWLSRSVTSFFRYRQCLCVPVVANFKKRCFSELIRPWHKTVTIGFGVTLCAVPIAQKSEPHSLSSEALMRRAVSLVTDSTSTFLSQTTYALIEAITEYTKAVYTLTSLYRQYTSLLGKMNSEEEDEVWQVIIGARAEMTSKHQEYLKLETTWMTAVGLSEMAAEAAYQTGADQASITARNHIQLVKLQVEEVHQLSRKAETKLAEAQIEELRQKTQEEGEERAESEQEAYLRED
- auto-ubiquitylation of Livin (Livin α): effectively stimulates auto-ubiquitylation of Livin α
- degradation of Livin α (Livin α; absence of MG132, FIG. 3B): slightly promoted the degradation of Livin α
- auto-ubiquitylation activity of c-IAP1 ΔBIR1-2-3 (c-IAP1; all three BIR domains deleted (residues 1-339), FIG. 7A): could no longer be enhanced
- auto-ubiquitylation activity of c-IAP1 ΔBIR1 (c-IAP1; first BIR deleted (residues 1-161), FIG. 7A): significantly enhanced
- auto-ubiquitylation activity of c-IAP1 ΔBIR1-2 (c-IAP1; first two BIRs deleted (residues 1-265), FIG. 7A): significantly enhanced
- c-IAP1 auto-ubiquitylation in vitro (c-IAP1): significantly enhanced c-IAP1 auto-ubiquitylation
